Results taken from US20090226437A1 (Genentech, published 2009).
Changes are numbered by the printed parent chain. In names and notes the source's numbering stands.

What was measured:
[1] = molecular target: alphaEbeta7 on alphaEbeta7-transfected 293 cells (human) (UniProt P38570); assay: cell adhesion inhibition, alphaEbeta7 293 cells on coated huE-Cadherin, experiment 3 of 3
[2] = molecular target: alphaEbeta7 on alphaEbeta7-transfected 293 cells (human) (UniProt P38570); assay: cell adhesion inhibition, alphaEbeta7 293 cells on coated huE-Cadherin, experiment 1 of 3
[3] = molecular target: alphaEbeta7 on alphaEbeta7-transfected 293 cells (human) (UniProt P38570); assay: cell adhesion inhibition, alphaEbeta7 293 cells on coated huE-Cadherin, experiment 2 of 3
[4] = molecular target: T1, Full length human integrin alpha4beta7 (expressed in 293 cells, purified by Fib504 affinity chromatography) (human, UniProt P13612 34-1032; P26010 20-798); assay: BIAcore (column head 'BIAcore Affinity Assay (nM)'); per paragraph 379 the Fab was immobilised on a CM5 chip and human integrin alpha4beta7 injected. The row shows unchanged L1 … and L2 KYASQSIS in the 'Fib504•K RF framework', i.e. the starting Fib504K-RF graft
T1 construct: mature; also called immobilized alpha4beta7
T1 sequence (P13612 34-1032, chain 1 of 2): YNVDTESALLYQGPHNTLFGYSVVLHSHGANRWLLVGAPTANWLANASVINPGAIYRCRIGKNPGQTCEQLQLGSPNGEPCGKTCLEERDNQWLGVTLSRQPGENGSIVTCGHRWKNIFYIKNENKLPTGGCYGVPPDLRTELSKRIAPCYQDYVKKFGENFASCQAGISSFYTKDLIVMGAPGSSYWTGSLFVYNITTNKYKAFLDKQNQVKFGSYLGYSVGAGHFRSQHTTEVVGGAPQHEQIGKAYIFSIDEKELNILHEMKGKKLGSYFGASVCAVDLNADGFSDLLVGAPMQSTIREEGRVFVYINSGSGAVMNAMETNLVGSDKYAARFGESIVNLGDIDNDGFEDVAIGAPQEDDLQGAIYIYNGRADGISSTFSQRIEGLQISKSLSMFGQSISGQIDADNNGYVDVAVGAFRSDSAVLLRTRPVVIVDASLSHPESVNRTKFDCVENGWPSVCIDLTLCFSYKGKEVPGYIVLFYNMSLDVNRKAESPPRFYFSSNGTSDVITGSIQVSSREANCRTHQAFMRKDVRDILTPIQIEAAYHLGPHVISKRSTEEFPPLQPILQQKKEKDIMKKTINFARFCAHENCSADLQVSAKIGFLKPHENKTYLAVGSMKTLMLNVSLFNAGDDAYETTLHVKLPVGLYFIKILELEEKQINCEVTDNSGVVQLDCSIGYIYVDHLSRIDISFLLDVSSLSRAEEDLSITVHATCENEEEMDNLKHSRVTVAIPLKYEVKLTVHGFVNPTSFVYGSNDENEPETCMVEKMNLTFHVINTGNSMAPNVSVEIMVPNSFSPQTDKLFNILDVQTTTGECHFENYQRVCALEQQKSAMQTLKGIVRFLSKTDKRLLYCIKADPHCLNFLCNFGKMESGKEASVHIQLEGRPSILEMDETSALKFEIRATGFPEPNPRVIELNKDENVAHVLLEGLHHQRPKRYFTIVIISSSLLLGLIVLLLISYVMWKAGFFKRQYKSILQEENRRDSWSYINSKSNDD
T1 sequence (P26010 20-798, chain 2 of 2): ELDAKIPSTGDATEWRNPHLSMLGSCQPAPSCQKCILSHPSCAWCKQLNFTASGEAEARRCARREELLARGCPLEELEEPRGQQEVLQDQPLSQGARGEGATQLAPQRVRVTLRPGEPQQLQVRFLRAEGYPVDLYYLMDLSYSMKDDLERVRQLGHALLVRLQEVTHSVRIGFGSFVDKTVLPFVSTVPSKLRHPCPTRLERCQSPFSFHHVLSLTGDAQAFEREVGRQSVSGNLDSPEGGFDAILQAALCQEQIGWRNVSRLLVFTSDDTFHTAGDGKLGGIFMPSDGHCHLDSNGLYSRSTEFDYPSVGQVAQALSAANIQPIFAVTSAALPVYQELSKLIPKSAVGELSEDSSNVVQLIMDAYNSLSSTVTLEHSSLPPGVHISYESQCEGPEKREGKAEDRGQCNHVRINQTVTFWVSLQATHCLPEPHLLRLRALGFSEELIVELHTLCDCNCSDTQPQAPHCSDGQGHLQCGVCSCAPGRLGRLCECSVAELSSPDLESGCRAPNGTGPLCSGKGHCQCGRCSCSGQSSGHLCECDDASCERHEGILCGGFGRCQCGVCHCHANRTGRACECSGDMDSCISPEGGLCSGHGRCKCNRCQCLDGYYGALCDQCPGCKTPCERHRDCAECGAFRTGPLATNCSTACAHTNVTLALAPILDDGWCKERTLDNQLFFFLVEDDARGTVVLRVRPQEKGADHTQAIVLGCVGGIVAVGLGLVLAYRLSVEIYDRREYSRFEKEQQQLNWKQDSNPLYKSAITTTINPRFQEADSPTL
Procedure: (§1) Affinity determinations were performed by surface plasmon resonance using a BIAcore™-3000 (Biacore, Piscataway, N.J.). Humanized Fib504 Fab variants were immobilized in 10 mM acetate pH 4.5 (ranging from 250 to 1500 response units (RU)) on a CM5 sensor chip and 2-fold dilutions of human integrin alpha4beta7 (1.5 to 770 nM) in TBSM containing 2% n-octylglucoside were injected. Each sample was analyzed with 5-minute association and 5 to 60-minute dissociation times. After each injection, the chip was regenerated using three 1-minute injections of 8 M urea. Binding response was corrected by subtracting the RU from a blank flow cell. A 1:1 Languir model of simultaneous fitting of kₒₙ and koff was used for kinetics analysis.
(§2) Libraries were generated as before using a soft randomization strategy simultaneously at each of the 6 HVRs for the Fib504K-RL and Fib504K-RF grafts and sorted on immobilized alpha4beta7 for 4 rounds of selection as described above. Enrichment was only observed for the library based on the Fib504K-RF graft. […] Most clones contained the change Y32L; in addition position 31 was frequently changed to D, S, P or N (FIG. 1C). In addition to the starting graft, Fib504K-RF, 3 clones were expressed and purified as Fab protein and further analyzed by Biacore as described above. […]

[5] = molecular target: T1, Full length human integrin alpha4beta7 …; assay: phage-displayed Fab on immobilized alpha4beta7
[6] = molecular target: T1, Full length human integrin alpha4beta7 …; assay: phage binding assay (OD): Fab displayed on phage, immobilised alpha4beta7, albumin as control coat
[7] = molecular target: T1, Full length human integrin alpha4beta7 …; assay: SPR (BIAcore-3000), Fab immobilized, alpha4beta7 injected
Procedure: as §1
Libraries were generated as before using a soft randomization strategy simultaneously at each of the 6 HVRs for the Fib504K-RL and Fib504K-RF grafts and sorted on immobilized alpha4beta7 for 4 rounds of selection as described above. Enrichment was only observed for the library based on the Fib504K-RF graft. […] Most clones contained the change Y32L; in addition position 31 was frequently changed to D, S, P or N (FIG. 1C). In addition to the starting graft, Fib504K-RF, 3 clones were expressed and purified as Fab protein and further analyzed by Biacore as described above. […] The results of the Biacore analysis are shown in Table 3, below, and indicate that selected variation in the HVRs and/or framework regions, disclosed herein, generated antagonist antibodies to alpha4beta7 having improved affinity relative to the starting antibody.

[8] = molecular target: T1, Full length human integrin alpha4beta7 …; assay: BIAcore (column head 'BIAcore Affinity Assay (nM)'); per paragraph 379 the Fab was immobilised on a CM5 chip and human integrin alpha4beta7 injected
Procedure: as §1, §2

[9] = molecular target: T1, Full length human integrin alpha4beta7 …; assay: SPR (BIAcore), Fab; reference Fib504 Fab
Procedure: as §1, §2

Chain of alphaEbeta7 on alphaEbeta7-transfected 293 cells (human) (P38570 19-1179, chain 1 of 2): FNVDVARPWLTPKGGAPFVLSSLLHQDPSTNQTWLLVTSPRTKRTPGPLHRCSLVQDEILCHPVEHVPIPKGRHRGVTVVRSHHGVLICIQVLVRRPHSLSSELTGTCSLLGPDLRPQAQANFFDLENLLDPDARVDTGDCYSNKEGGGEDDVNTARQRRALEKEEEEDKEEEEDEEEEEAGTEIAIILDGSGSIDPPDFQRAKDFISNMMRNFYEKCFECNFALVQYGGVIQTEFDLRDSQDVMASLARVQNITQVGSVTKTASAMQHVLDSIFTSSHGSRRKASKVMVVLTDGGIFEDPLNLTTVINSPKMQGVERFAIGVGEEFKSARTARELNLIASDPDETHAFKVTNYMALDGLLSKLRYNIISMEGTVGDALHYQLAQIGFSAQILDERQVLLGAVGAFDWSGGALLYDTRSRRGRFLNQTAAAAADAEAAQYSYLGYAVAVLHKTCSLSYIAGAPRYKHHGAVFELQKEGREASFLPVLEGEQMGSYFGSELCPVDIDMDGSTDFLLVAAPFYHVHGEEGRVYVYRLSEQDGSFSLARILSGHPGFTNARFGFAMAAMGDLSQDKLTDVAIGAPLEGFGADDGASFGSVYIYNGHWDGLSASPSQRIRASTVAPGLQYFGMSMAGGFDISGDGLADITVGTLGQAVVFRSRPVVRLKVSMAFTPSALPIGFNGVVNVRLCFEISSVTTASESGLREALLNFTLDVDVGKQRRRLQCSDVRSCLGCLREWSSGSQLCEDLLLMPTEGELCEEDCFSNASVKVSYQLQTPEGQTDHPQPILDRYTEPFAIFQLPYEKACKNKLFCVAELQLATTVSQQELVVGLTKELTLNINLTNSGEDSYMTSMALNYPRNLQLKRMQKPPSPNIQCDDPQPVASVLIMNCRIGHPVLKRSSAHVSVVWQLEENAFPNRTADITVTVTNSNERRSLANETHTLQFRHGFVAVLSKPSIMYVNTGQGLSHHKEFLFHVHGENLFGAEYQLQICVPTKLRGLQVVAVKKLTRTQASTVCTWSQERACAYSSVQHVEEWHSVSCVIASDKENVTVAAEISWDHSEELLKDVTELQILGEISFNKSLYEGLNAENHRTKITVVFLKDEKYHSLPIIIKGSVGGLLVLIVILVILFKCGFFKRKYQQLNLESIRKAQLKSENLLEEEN
Chain of alphaEbeta7 on alphaEbeta7-transfected 293 cells (human) (P26010 20-798, chain 2 of 2, further chain): as the sequence (P26010 20-798, chain 2 of 2) above

Molecule HP2/1 (anti-alpha4, control) (antibody) has an IC90 [1] greater than 100 nM, an IC90 [2] greater than 100 nM and an IC90 [3] greater than 100 nM.

B1: Fib504K-RF graft (Fib504K graft in the RF acceptor framework), Fab (Fab, V domains shown)
VH: EVQLVESGGGLVQPGGSLRLSCAASGFFITNNYWGWVRQAPGKGLEWVGYISYSGSTSYNPSLKSRFTISRDTSKNTFYLQMNSLRAEDTAVYYCAMTGSSGYFDFWGQGTLVTVSS
VL: DIQMTQSPSSLSASVGDRVTITCRASESVDTYLHWYQQKPGKAPKLLIKYASQSISGVPSRFSGSGSGTDFTLTISSLQPEDFATYYCQQGNSLPNTFGQGTKVEIKR
notes: number not given; also called hu504K-RF graft
B1 was tested, and the Kd [4] was 132 nM.

B2: Fib504 Kgraft (HVR graft that also includes VL position 49K), Fab displayed on phage (Fab, V domains shown)
VH: B1 VH with R71A, F78A
VL: B1 VL
notes: Tested as Fab on phage; also called hu504 Kgraft; hu504K graft
B2: no binding [5].

B3: Fib504 graft (direct HVR graft of rat Fib504 into the human acceptor framework), Fab displayed on phage (Fab, V domains shown)
VH: B1 VH with R71A, F78A
VL: B1 VL with K49Y
notes: Tested as monovalent Fab-g3 on phage (VH-CH1 fused to truncated P3); also called hu504 graft; humanized504 graft
B3: no binding [5].

B4: Fib504-RF (Fib504 graft in the RF acceptor framework), Fab displayed on phage (Fab, name in Kabat numbering, V domains shown)
VH: B1 VH
VL: B1 VL with K49Y
notes: It is built from the Fib504 graft chains with the RF framework changes; Tested as Fab on phage; also called hu504-RF
B4: no binding [6].

B5: Variant hu504.5, Fab (Fab, name in Kabat numbering, V domains shown)
VH: B1 VH
VL: B1 VL with T31S, Y32L
notes: Tested as Fab; also called Variant 504.5
Work on B5 yielded a Kd [7] of 9 nM.

B6: Variant hu504.16, Fab (Fab, name in Kabat numbering, V domains shown)
VH: B1 VH
VL: B1 VL with Y32L
notes: Clone from the Fib504K-RF library with an HVR-L1 change; Tested as Fab; also called Variant 504.16
Work on B6 yielded a Kd [8] of 23.4 nM and a Kd [7] of 23 nM.

B7: Variant hu504.32, Fab (Fab, V domains shown)
VH: B1 VH
VL: B1 VL with T31D, Y32L
notes: T31D and Y32L in the light chain of the hu504 Kgraft; Tested as Fab; also called Variant 504.32; humanized variant 504.32
With B7 the Kd [8] was 3.5 nM, the “fold tighter binding relative to the starting rat antibody” value [9] was 3 fold and the Kd [7] was 3 nM.

B8: chimeric Fib504 Fab (Fab, V domains shown)
VH: EVQLQESGPGLVKPSQSLSLTCSVTGFFITNNYWGWIRKFPGNKMEWMGYISYSGSTSYNPSLKSRISITRDTSKNQFFLQLNSVTTEDTATYYCAMTGSSGYFDFWGPGTMVTVSS
VL: DVVMTQSPATLSVTPGERISLSCRASESVDTYLHWYQQKPNESPRLLIKYASQSISGIPSRFSGSGSGTDFTLSINGVELEDLSIYYCQQGNSLPNTFGAGTKLELKR
notes: Rat Fib504 variable domains in a chimeric Fab; the constant domains are not specified
With B8 the Kd [7] was 11 nM.
